Reference: article PMC11784139
Numbering of substitutions follows the chain as printed.

Key:
Assay in all cases: EMSA
Settings in all cases: EMSA: 5 mM Tris-HCl pH 7.5, 0.1 mM EDTA, 5 mM MgCl2, 10 mM KCl, 0.2 mM DTT, 30 C, 30 min, native PAGE in 0.5x TBE; MST: 50 mM PBS pH 7.2-7.4, temperature not …
[1] = system: T1, 6xHis-APR1 F314S F314S (Acinetobacter venetianus RAG-1), ORF:d17a4b85
T1 sequence: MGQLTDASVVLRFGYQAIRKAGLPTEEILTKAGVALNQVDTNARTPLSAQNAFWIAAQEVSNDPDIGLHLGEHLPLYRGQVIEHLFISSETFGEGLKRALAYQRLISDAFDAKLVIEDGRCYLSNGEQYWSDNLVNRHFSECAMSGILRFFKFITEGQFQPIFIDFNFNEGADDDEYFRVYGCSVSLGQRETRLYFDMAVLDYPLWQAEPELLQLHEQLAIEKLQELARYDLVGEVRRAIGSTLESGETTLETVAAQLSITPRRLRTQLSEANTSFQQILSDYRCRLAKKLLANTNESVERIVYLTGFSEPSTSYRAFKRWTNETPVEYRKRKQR

[2] = system: T2, MBP-APR1 L265S L265S (Acinetobacter venetianus RAG-1), ORF:d17a4b85
T2 sequence: T1 sequence with L265S, S314F

[3] = system: T3, 6xHis-APR1 T306L T306L (Acinetobacter venetianus RAG-1), ORF:d17a4b85
T3 sequence: T1 sequence with T306L, S314F

[4] = system: T4, 6xHis-APR1 V303E V303E (Acinetobacter venetianus RAG-1), ORF:d17a4b85
T4 sequence: T1 sequence with V303E, S314F

[5] = system: T5, 6xHis-APR1 F318S F318S (Acinetobacter venetianus RAG-1), ORF:d17a4b85
T5 sequence: T1 sequence with S314F, F318S

**Q.** Which binding [1] does the source give for “AGCCTACCTGATGATCAAATTGGAAAGGCGCAAATTATAGTCAATTTATTTGAAATTTACAAGACGCTCTCTTAGCAAAGCTTGTACAGATGAATTGGAAAAAACTGTCAGACAATCCTCATTTTTTTTTAACAAAAGAAGCAGAATAGTGTTGTCAGTTTGGTCAATCAACGTTAATCTAAAATTATTGTTTATTGTCACAATAACGTATCTACAGGGAAGGGCACTGC (double strand) [apR1 promoter]” here?
**A.** no binding

**Q.** And the binding [2]?
**A.** no binding

**Q.** What about the binding [3] of the same sequence?
**A.** binds

**Q.** What about the binding [4] of the same sequence?
**A.** no binding

**Q.** What about the binding [5] of the same sequence?
**A.** no binding
